Experimental findings from patent US20020039577A1 (published 2002) are described below.

In experiment [1] the target is T1, L104EA29YIg (human, UniProt P16410 38-161; P01857 99-330 = IgG part, A29Y; L104E).
T1 construct: extracellular domain;domain: hinge, CH2 and CH3 regions of IgC1; Same mobility as dimeric CTLA4Ig; Positions count from methionine +1, not on the UniProt precursor; also called double-site CTLA4 mutant molecule; ATCC PTA-2104
Put plainly: flow cytometry on human CD80-transfected CHO cells. How it is done: (§1) Bound immunoglobulin fusion protein was detected using fluorescein isothiocyanate-conjugated goat anti-human immunoglobulin.
(§2) Binding on a total of 5,000 viable cells was analyzed (single determination) on a FACScan, and mean fluorescence intensity (MFI) was determined from data histograms using PC-LYSYS.
(In general: In flow cytometry, cells or beads pass a laser one at a time.)

Experiment [2] has as its target T1, L104EA29YIg. Put plainly: flow cytometry on human CD86-transfected CHO cells. The protocol:
as §1, §2

T1 sequence (P16410 other isoform, or with tags, fused parts or gaps A29Y/L104E): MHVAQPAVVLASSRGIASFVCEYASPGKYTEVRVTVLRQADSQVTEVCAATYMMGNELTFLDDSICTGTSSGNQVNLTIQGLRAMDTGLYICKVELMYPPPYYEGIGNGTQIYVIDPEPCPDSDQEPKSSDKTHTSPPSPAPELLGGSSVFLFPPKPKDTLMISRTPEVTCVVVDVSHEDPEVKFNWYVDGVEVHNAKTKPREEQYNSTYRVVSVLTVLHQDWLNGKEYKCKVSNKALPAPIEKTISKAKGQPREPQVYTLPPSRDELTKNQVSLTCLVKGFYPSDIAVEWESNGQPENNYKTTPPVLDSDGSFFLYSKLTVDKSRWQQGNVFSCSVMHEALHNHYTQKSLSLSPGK

B1: human CD80 on stably transfected CHO cells (ligand, UniProt P33681 35-288, looked up)
chain: VIHVTKEVKEVATLSCGHNVSVEELAQTRIYWQKEKKMVLTMMSGDMNIWPEYKNRTIFDITNNLSIVILALRPSDEGTYECVVLKYEKDAFKREHLAEVTLSVKADFPTPSISDFEIPTSNIRRIICSTSGGFPEPHLSWLENGEELNAINTTVSQDPETELYAVSSKLDFNMTTNHSFMCLIKYGHLRVNQTFNWNTTKQEHFPDNLLPSWAITLISVNGIFVICCLTYCFAPRCRERRRNERLRRESVRPV
notes: whole, on cells; also called CD80-positive CHO cells; CD80+ CHO cells
For B1, the binding result with L104EA29YIg [1] is listed as “binds”.

B2: human CD86 on stably transfected CHO cells (ligand, UniProt P42081 24-329, looked up)
chain: APLKIQAYFNETADLPCQFANSQNQSLSELVVFWQDQENLVLNEVYLGKEKFDSVHSKYMGRTSFDSDSWTLRLHNLQIKDKGLYQCIIHHKKPTGMIRIHQMNSELSVLANFSQPEIVPISNITENVYINLTCSSIHGYPEPKKMSVLLRTKNSTIEYDGVMQKSQDNVTELYDVSISLSVSFPDVTSNMTIFCILETDKTRLLSSPFSIELEDPQPPPDHIPWITAVLPTVIICVMVFCLILWKWKKKKRPRNSYKCGTNTMEREESEQTKKREKIHIPERSDEAQRVFKSSKTSSCDKSDTCF
notes: whole, on cells; also called CD86-positive CHO cells; CD86+ CHO cells
As to B2, the binding result with L104EA29YIg [2] is reported as “binds”.
